We go through two molecules from article PMC8130932 (PLoS Pathogens, 2021).

Test [1] concerns the target T1, Human coronavirus OC43 spike glycoprotein S1+S2 extracellular domain (Human coronavirus OC43, AVR40344.1 (by …)).
T1 construct: source: bought: Sino Biologicals
T1 chain: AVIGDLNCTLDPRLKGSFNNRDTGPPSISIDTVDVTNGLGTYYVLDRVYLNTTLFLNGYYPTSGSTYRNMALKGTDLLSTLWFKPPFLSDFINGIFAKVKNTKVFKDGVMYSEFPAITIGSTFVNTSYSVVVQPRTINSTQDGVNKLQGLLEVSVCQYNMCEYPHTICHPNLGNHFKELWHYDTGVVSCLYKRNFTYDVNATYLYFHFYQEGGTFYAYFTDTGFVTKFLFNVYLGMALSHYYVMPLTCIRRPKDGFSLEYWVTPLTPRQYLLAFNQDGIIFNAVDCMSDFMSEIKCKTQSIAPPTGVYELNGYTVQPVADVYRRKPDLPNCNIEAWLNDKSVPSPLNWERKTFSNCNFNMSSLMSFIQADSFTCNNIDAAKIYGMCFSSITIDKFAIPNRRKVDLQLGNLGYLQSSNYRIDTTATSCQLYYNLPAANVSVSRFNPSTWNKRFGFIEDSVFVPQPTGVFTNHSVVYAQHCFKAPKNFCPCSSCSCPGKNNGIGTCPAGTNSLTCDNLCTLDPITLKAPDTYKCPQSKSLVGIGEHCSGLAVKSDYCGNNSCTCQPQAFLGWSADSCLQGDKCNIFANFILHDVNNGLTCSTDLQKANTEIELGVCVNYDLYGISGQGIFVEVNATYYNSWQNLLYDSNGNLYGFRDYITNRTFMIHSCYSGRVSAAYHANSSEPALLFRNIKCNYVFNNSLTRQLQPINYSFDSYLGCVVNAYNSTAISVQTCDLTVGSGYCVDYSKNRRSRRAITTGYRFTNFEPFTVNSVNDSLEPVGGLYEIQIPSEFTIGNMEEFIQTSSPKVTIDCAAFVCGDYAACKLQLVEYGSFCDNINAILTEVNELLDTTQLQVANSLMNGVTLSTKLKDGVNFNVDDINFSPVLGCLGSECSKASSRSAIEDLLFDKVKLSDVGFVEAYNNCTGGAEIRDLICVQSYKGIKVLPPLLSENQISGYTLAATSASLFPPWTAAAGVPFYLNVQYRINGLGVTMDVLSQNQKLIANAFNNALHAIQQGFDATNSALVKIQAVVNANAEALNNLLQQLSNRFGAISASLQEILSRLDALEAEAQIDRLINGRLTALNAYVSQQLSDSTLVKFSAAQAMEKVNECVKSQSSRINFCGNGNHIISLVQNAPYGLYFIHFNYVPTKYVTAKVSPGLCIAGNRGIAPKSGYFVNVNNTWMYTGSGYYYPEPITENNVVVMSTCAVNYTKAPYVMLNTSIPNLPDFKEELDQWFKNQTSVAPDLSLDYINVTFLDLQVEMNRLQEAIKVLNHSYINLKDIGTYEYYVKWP
The experiment in a line: ELISA. Background: An ELISA detects its analyte on a solid surface through an enzyme-linked reagent.

The target in test [2] is T2, SARS-CoV-2 spike S2 subunit, recombinant (SARS-CoV-2, reference sequence, UniProt P0DTC2).
T2 construct: source: bought: Sino Biologicals, baculovirus-insect cells
The experiment in a line: ELISA.

Test [3] has as its target T3, MERS spike glycoprotein S1+S2 extracellular domain (MERS coronavirus, isolate EMC/2012 (by …, UniProt K0BRG7)).
T3 construct: source: bought: Sino Biologicals, baculovirus-insect cells
The experiment in a line: ELISA.

In test [4] the target is SARS-CoV-2 spike glycoprotein of wild-type virus, in infected Vero E6 cells (SARS-CoV-2 …, UniProt P0DTC2). The experiment in a line: cell-based or functional assay.
Test [5] addresses T4, SARS-CoV-2 RBD (amino acids 340-538) on MDCK-SIAT1 cells (SARS-CoV-2 (so in the source)).
T4 construct: also called MDCK-RBD; source: MDCK-SIAT1, stably transduced (lentiviral vector), on the cell surface
The experiment in a line: flow cytometry on cells. Particulars: one partner purified.

The target in test [6] is T5, SARS-CoV-2 NTD on MDCK-SIAT1 cells (SARS-CoV-2 (so in the source)).
T5 construct: also called MDCK-NTD
As to the kind of experiment: flow cytometry on cells. Particulars: one partner purified.

B1: FB 1E (antibody, V domains shown)
VH: EVQLVESGAEVKKPGESLKISCQGSGYRFNSYWIAWVRQMPGKGLEWMGSIFPTDSDIRYNPSFQGQVTISADKSISIAYLQWSSLKASDTAIYYCARHWASMVRGVIRASHYYGMDVWGQGTTVTVSS
VL: QSVLTQPPSASGSPGQSVTISCSGASSDIGDYNYVSWYQQLPGKAPKLLIYEVTKRPSGVPDRFSGSKSGNTASLTVSGLQADDEADYYCSSYAFGGSDIRVFGGGTKLAVL
notes: source: HEK293T, transfected; culture supernatant or purified
B1: the OD450 was determined as 2.34 OD450 in test [1], 1.2 OD450 in test [2] and 1.01 OD450 in test [3]. The “PRNT EC50, wild-type SARS-CoV-2 (hCoV-19/England/02/2020) on Vero E6 cells” value in test [4] came to 36 nM.

B2: FB 9D (antibody, V domains shown)
VH: QVQLVESGAEVKKPGESLKISCQGSGYRFNSYWIAWVRQMPGKGLEWMGSIFPTDSDVRYNPSFQGQVTISADKSISFAYLQWSSLKASDTAIYYCARHWASMVRGVIRASHYYGMDVWGQGTTVTVSS
VL: QPVLTQPPSASGSPGQSVTISCSGASSDIGKYNYVSWYQQLPGKAPKLLIYEVTKRPSGVPDRFSGSKSGNTASLTVSGLQADDEADYYCSSYAFGGSDTRVFGGGTKLTVL
notes: as for B1
For B2, the OD450 in test [1] came out at 2.13 OD450; in test [2], 1.27 OD450; in test [3], 1.5 OD450. Further, the binding result in test [5] and in test [6] was “no binding” each time.
